Test results published in IntAct's records for PubMed 23737971.

B1: Ras-related protein Rab-6A (Homo sapiens), P20340-1 (parent)
chain: MSTGGDFGNPLRKFKLVFLGEQSVGKTSLITRFMYDSFDNTYQATIGIDFLSKTMYLEDRTVRLQLWDTAGQERFRSLIPSYIRDSTVAVVVYDITNVNSFQQTTKWIDDVRTERGSDVIIMLVGNKTDLADKRQVSIEEGERKAKELNVMFIETSAKAGYNVKQLFRRVAAALPGMESTQDRSREDMIDIKLEKPQEQPVSEGGCSC
partner: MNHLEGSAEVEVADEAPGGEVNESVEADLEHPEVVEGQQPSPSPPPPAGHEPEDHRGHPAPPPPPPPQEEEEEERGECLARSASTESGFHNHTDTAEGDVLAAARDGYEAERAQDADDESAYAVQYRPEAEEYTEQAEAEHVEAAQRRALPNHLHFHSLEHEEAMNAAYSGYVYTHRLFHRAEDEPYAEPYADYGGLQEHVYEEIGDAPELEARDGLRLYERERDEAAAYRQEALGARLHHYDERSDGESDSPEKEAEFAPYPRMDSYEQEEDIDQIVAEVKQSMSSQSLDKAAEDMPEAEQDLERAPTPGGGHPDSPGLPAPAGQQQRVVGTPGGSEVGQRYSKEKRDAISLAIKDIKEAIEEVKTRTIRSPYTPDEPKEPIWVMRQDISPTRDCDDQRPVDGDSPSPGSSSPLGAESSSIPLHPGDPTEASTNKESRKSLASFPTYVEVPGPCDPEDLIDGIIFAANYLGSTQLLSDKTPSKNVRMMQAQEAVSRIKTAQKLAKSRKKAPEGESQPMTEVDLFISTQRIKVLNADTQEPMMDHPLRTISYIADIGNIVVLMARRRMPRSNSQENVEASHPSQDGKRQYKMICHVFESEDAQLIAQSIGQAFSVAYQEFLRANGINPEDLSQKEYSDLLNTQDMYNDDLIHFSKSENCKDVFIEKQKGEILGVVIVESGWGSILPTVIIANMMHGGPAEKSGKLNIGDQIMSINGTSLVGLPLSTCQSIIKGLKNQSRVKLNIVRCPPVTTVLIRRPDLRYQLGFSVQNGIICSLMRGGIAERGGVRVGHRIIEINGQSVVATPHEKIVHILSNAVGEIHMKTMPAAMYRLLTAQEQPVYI
B2: Ras-related protein Rab-6A (Homo sapiens), P20340-1 (parent)
chain: B1 chain
partner: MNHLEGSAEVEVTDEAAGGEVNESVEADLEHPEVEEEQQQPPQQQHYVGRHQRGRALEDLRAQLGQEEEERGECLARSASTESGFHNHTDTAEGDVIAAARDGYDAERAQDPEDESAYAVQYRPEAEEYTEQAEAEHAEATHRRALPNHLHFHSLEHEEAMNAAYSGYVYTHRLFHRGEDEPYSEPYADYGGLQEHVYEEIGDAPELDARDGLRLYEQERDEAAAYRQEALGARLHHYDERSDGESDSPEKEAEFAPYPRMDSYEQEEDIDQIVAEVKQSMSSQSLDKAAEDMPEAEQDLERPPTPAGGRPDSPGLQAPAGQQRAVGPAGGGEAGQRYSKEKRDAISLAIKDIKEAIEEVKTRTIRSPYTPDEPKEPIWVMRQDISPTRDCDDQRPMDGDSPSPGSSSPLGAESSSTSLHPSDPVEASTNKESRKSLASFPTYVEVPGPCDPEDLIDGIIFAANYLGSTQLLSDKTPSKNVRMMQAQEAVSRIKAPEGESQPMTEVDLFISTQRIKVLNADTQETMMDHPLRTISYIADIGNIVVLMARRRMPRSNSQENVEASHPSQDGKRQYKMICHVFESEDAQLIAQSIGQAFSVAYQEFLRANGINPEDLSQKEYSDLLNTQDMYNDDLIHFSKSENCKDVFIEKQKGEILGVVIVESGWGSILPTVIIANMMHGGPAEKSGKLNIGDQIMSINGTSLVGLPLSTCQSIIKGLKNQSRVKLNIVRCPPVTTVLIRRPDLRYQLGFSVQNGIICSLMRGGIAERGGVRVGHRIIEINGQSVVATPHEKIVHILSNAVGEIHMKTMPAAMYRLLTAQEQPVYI
B3: Ras-related protein Rab-6B (Homo sapiens), Q9NRW1 (parent)
chain: MSAGGDFGNPLRKFKLVFLGEQSVGKTSLITRFMYDSFDNTYQATIGIDFLSKTMYLEDRTVRLQLWDTAGQERFRSLIPSYIRDSTVAVVVYDITNLNSFQQTSKWIDDVRTERGSDVIIMLVGNKTDLADKRQITIEEGEQRAKELSVMFIETSAKTGYNVKQLFRRVASALPGMENVQEKSKEGMIDIKLDKPQEPPASEGGCSC
partner: B2 partner

Variants of: B1
Settings: with apba1_mouse Apba1, B2RUJ5

Variant | effect of a mutation on the interaction
T27N | disrupting interaction

Variants of: B2
Settings: with APBA1, Q02410-2

Variant | effect of a mutation on the interaction
T27N | disrupting interaction

Variants of: B3
Settings: with APBA1, Q02410-2

Variant | effect of a mutation on the interaction
T27N | disrupting interaction
